Experimental findings from PMC11128199 (2024) are described below.

The target in the test is S protein of WT SARS-CoV-2 (SARS-CoV-2, UniProt P0DTC2). The experiment in a line: ELISA.

B1: 55A8 neutralizing antibody (IgG) (antibody, V domains shown)
VH: QVQLVQSGAEVKKPGSSVKVSCKASGGTFSSYSFIWVRQAPGQGLEWMGRIIPILGIANYAQKFQGRVTITADKSTTTAYMELSSLRSEDTAVYYCARGTEYGDYDVSHDWGQGTLVTVSS
VL: not shown
As usually defined, the EC50 is the concentration needed to bring the measured effect to its halfway point. Low readings indicate an effect from little substance, high ones a need for much substance. For B1, the midpoint of the response, the EC50, lay at 0.0439 µg/mL.
